According to the MegaScale stability set (Tsuboyama et al. 2023):

B1: EEHEE_rd4_0363 (parent)
chain: VTVDIKGMEYHFDNPEEAKKFAERMAKELGGELKVENGTLKVE

Variants of: B1
Assay: folding stability dG (cDNA display proteolysis); higher = more stable
Conditions: PBS, room temperature

Folding stability dG [kcal/mol]: each site, then its substitutions
T39: C 1.89 | H 1.93 | G 1.4 | I 2.81 | A 1.6 | D 1.17 | F 1.88 | K 2.43 | E 1.2
F21: Q -0.803 | V -0.636 | W 1.64 | Y 1.06 | N -0.807
E28: H 1.73 | R 1.81 | C 2.97 | P 0.477 | F 1.95 | I 2.18 | K 1.92 | T 1.47 | M 2.03 | Q 1.75 | L 2.34 | S 1.4 | N 1.28 | A 1.81 | V 1.88 | G 0.795 | D 1.34 | W 2.26 | Y 2.07
V35: Q 1.62 | H 1.57 | E 1.96 | M 2 | L 1.93 | I 2.27 | N 1.73 | G 1.2 | C 2.78 | Y 2.48 | D 1.59 | R 1.25 | T 1.72 | F 2.38 | P 0.972 | A 1.53 | W 3.09 | S 1.61 | K 1.3
E36: Y 1.86 | F 1.88 | W 1.52 | I 2.43 | S 1.73 | G 1.61 | N 1.59 | H 1.83 | P 0.792 | K 1.4 | L 2.02 | Q 1.89 | M 1.84 | C 2.26 | R 1.45 | A 1.74 | D 1.77 | T 1.78 | V 2.54
E32: D 1.67 | R 2.23 | N 2.21 | H 2.45 | F 2.82 | I 2.89 | W 2.97 | M 2.31 | L 2.32 | K 2.43 | G 1.4 | A 2.15 | C 2.56 | Y 2.96 | Q 2.41 | S 2.48 | T 2.81 | P 0.989 | V 2.84
E23: N 0.999 | T 1.31 | L 1.89 | I 1.87 | M 1.9 | C 2.35 | H 1.11 | P -0.639 | R 1.16 | Q 1.65 | G 0.124 | F 1.27 | S 1.08 | D 1.58 | Y 1.5 | A 1.48 | W 1.4 | V 1.55 | K 1.34
K34: G 1.03 | W 1.82 | T 1.9 | P 0.802 | A 1.33 | L 1.77 | F 2 | C 1.95 | H 1.82 | M 1.66 | Q 1.42 | V 2.26 | D 1.01 | E 1.02 | I 2.28 | N 1.41 | S 1.68 | R 2.21 | Y 1.98
K27: G 1.35 | F 2.35 | Q 2.09 | I 2.14 | Y 2.27 | A 2.15 | H 1.87 | V 1.82 | E 1.77 | C 2.48 | T 1.7 | R 2.11 | M 2.19 | L 2.35 | D 1.56 | P 0.089 | S 1.81 | N 1.75 | W 2.28
G31: R 0.865 | D 0.935 | K 0.977 | C 2.36 | I 1.88 | S 1.39 | P 0.726 | A 2.15 | W 2.33 | M 2.32 | N 0.953 | H 1.27 | Q 1.32 | Y 2.12 | V 1.85 | F 2.03 | L 2.57 | T 1.38 | E 1.23
A26: I 1.6 | L 1.64 | Y 0.983 | N 0.898 | E 0.931 | M 1.55 | W 1.48 | K 0.954 | Q 1.3 | P -0.451 | D 0.592 | H 0.962 | R 1.24 | C 2.06 | T 1.23 | V 1.66 | S 1.3 | F 1.13 | G 0.834
R24: M 2.11 | Q 2.04 | I 1.5 | G 1.29 | V 1.35 | Y 2.34 | A 2.11 | P -0.281 | C 2.83 | E 1.99 | D 1.68 | L 1.99 | N 1.55 | T 1.75 | K 2.01 | S 1.72 | F 2.28 | W 2.34 | H 1.94
L29: I 1.57 | S 1.12 | K 0.78 | E 0.835 | T 1.37 | A 0.915 | F 1.55 | N 1.05 | W 1.34 | G 0.895 | R 0.668 | P 0.59 | Q 1.06 | Y 1.47 | H 1.23 | M 1.69 | V 1.14 | D 0.74
A22: G 0.968 | T 0.578 | N 0.039 | V 1.26 | I 1.5 | Y 1.06 | F 1.23 | Q 0.746 | K 0.798 | E 0.571 | H 0.228 | W 1.53 | M 1.39 | C 1.54 | D -0.23 | R 1.05 | S 0.388 | L 1.48
M25: Y 1.34 | P -0.009 | I 1.57 | N 0.581 | A 1.37 | D 0.142 | F 1.08 | Q 1.05 | R 1.13 | V 1.44 | L 1.45 | K 1.37 | H 0.844 | C 2.19 | S 0.692 | E 0.574 | G 0.03 | W 2.1 | T 0.78
N37: M 1.3 | V 1.14 | T 1.18 | G 1.97 | Y 1.19 | A 1.4 | P 1.26 | F 1.41 | H 1.52 | D 1.63 | R 1.14 | E 1.52 | W 0.999 | L 1.52 | Q 1.46 | C 2.07 | K 1.45 | S 1.38 | I 1.14
G30: I 1 | Y 1.27 | D 1.52 | F 1.43 | R 1.6 | L 1.34 | T 1 | H 1.74 | A 1.43 | P 0.76 | K 1.66 | N 1.93 | M 1.55 | C 2.23 | W 1.17 | S 1.5 | E 1.41 | Q 1.57 | V 1.01
L33: K 0.659 | M 1.61 | P 0.732 | R 0.462 | I 2.48 | Y 1.43 | G 0.82 | N 0.799 | H 0.949 | A 1.07 | V 2.81 | W 1.78 | E 0.789 | S 0.81 | T 1.13 | F 1.47 | D 0.762 | Q 0.872
G38: I 0.967 | F 0.552 | H 1.25 | K 0.662 | D 1.3 | C 1.98 | A 1.13 | S 1.19 | Y 0.501 | L 1.02 | N 1.68 | E 1.13 | T 1.17 | V 0.725 | P 0.815 | M 1.1 | R 0.518 | W 0.438 | Q 1.21
